We go through 6 molecules from patent US20110305711A1 (Eli Lilly, published 2011).

Test [1] concerns the target T1, human α-CGRP (Bachem H1470) (human, UniProt P06881 83-119).
T1 peptide (looked up): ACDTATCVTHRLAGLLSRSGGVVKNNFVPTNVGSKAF
Description: cell-based or functional assay.

Test [2] deals with Human CGRP (human) (UniProt P06881). Description: SPR, Biacore T100, 37 C.
The target is the same in test [3]. Description: SPR, Biacore T100, 37 C, antibody captured on protein A, CGRP as analyte; n=1.
Test [4] shares this target. Description: SPR, Biacore T100, 37 C, antibody captured on protein A, CGRP as analyte; mean ± SD, n=4.
The target is the same in test [5]. Description: SPR, Biacore T100, 37 C, antibody captured on protein A, CGRP as analyte; mean ± SD, n=6.
For test [6] the target is unchanged. Description: SPR, Biacore T100, 37 C, antibody captured on protein A, CGRP as analyte; mean ± SD, n=2.
Test [7] shares this target. Briefly: SPR, Biacore T100, 37 C, antibody captured on protein A, CGRP as analyte; mean ± SD, n=3.

B1: Antibody G1 (antibody, V domains shown)
VH: EVQLVESGGGLVQPGGSLRLSCAASGFTFSNYWISWVRQAPGKGLEWVAEIRSESDASATHYAEAVKGRFTISRDNAKNSLYLQMNSLRAEDTAVYYCLAYFDYGLAIQNYWGQGTLVTVSS
VL: EIVLTQSPATLSLSPGERATLSCKASKRVTTYVSWYQQKPGQAPRLLIYGASNRYLGIPARFSGSGSGTDFTLTISSLEPEDFAVYYCSQSYNYPYTFGQGTKLEIK
Consider B1, for which the “inhibition of CGRP induced cAMP formation in SK-N-MC cells (IC50)” value in test [1] worked out at 5.36 nM.

B2: Antibody I (antibody, human IgG4 S228P, kappa, F234A L235A, V domains shown)
VH: QVQLVQSGAEVKKPGASVKVSCKASGYTFGNYWMQWVRQAPGQGLEWMGAIYEGTGDTRYIQKFAGRVTMTRDTSTSTVYMELSSLRSEDTAVYYCARLSDYVSGFSYWGQGTLVTVSS
VL: DIQMTQSPSSLSASVGDRVTITCRASQDIDNYLNWYQQKPGKAPKLLIYYTSEYHSGVPSRFSGSGSGTDFTFTISSLQPEDIATYYCQQGDALPPTFGQGTKLEIKR
With B2, the Kd was less than 200000 nM with Human CGRP (human) [2] and 0.19 nM with Human CGRP (human) [3].

B3: Antibody IV (antibody, human IgG4 S228P, kappa, F234A L235A, V domains shown)
VH: QVQLVQSGAEVKKPGASVKVSCKASGYTFGNYWMQWVRQAPGQGLEWMGAIYEGTGKTVYIQKFAGRVTMTRDTSTSTVYMELSSLRSEDTAVYYCARLSDYVSGFGYWGQGTLVTVSS
VL: DIQMTQSPSSLSASVGDRVTITCRASRPIDKYLNWYQQKPGKAPKLLIYYTSEYHSGVPSRFSGSGSGTDFTFTISSLQPEDIATYYCQQGDALPPTFGQGTKLEIKR
For the molecule B3, the Kd with Human CGRP (human) [2] was less than 200000 nM; with Human CGRP (human) [4] it was 0.024 nM.

B4: Antibody III (antibody, human IgG4 S228P, kappa, F234A L235A, V domains shown)
VH: QVQLVQSGAEVKKPGSSVKVSCKASGYTFGNYWMQWVRQAPGQGLEWMGAIYEGTGKTVYIQKFADRVTITADKSTSTAYMELSSLRSEDTAVYYCARLSDYVSGFGYWGQGTTVTVSS
VL: DIQMTQSPSSLSASVGDRVTITCRASKDISKYLNWYQQKPGKAPKLLIYYTSGYHSGVPSRFSGSGSGTDFTLTISSLQPEDFATYYCQQGDALPPTFGGGTKVEIKR
For B4, the “inhibition of CGRP induced cAMP formation in SK-N-MC cells (IC50)” value in test [1] was found to be 0.41 nM. Also, the Kd with Human CGRP (human) [2] was less than 200000 nM; with Human CGRP (human) [5] it was 0.031 nM.

B5: Antibody V (antibody, human IgG4 S228P, kappa, F234A L235A, V domains shown)
VH: QVQLVQSGAEVKKPGSSVKVSCKASGYTFGNYWMQWVRQAPGQGLEWMGAIYEGTGKTVYIQKFAGRVTITADKSTSTAYMELSSLRSEDTAVYYCARLSDYVSGFGYWGQGTTVTVSS
VL: DIQMTQSPSSLSASVGDRVTITCRASQDIDKYLNWYQQKPGKAPKLLIYYTSGYHSGVPSRFSGSGSGTDFTLTISSLQPEDFATYYCQQGDALPPTFGGGTKVEIKR
For B5, the results for the Kd in the test with Human CGRP (human) [2] and with Human CGRP (human) [6] were less than 200000 nM and 0.024 nM, respectively.

B6: Antibody II (antibody, human IgG4 S228P, kappa, F234A L235A, V domains shown)
VH: QVQLVQSGAEVKKPGASVKVSCKASGYTFGNYWMQWVRQAPGQGLEWMGAIYEGTGKTVYIQKFAGRVTMTRDTSTSTVYMELSSLRSEDTAVYYCARLSDYVSGFSYWGQGTLVTVSS
VL: DIQMTQSPSSLSASVGDRVTITCRASQDIDNYLNWYQQKPGKAPKLLIYYTSEYHSGVPSRFSGSGSGTDFTFTISSLQPEDIATYYCQQGDALPPTFGQGTKLEIKR
For B6, the values for the Kd with Human CGRP (human) [2] and in the test with Human CGRP (human) [7] were less than 200000 nM and 0.026 nM, respectively.
